Reference: publication PMC4648099
Several values for one entry are separate records, joined by “and”; a condition that tells them apart may be missing. Equal values may be shown once.

Biological target: thrombin (alpha-thrombin) (UniProt P00734+P00734)
Experiment: competition (FAM fluorescence displacement)
Conditions: G8 replaced by 5-nitroindole (N at position 8); Fluorescence assays: 10 mM sodium cacodylate pH 7.2, 100 mM KCl, 20 °C, 20 nM FAM-aptamer (100 nM thrombin in displacement); EMSA: 1xTBE pH 8.3, 100 mM KCl …

## GGTTGGTNTGGTTGG [TBA-N8]
  Kd: 2.3 nM and 1.7 nM
